Key:
HLA-A*03 = target: T1, HLA-A*03 (human); experiment: UV peptide-exchange ELISA; ++++ = yield >75%
T1 construct: MHC monomer made peptide-receptive by UV cleavage of a UV-sensitive ligand; also called peptide-receptive MHC class I monomer

HLA-B*44 = target: T2, HLA-B*44 (human); experiment: UV peptide-exchange ELISA; +++ = yield >50%
T2 construct: MHC monomer made peptide-receptive by UV cleavage of a UV-sensitive ligand; also called peptide-receptive MHC class I monomer
Description: (§1) Candidate peptides for T cell based therapies according to the present invention were further tested for their MHC binding capacity (affinity). The individual peptide-MHC complexes were produced by UV-ligand exchange, where a UV-sensitive peptide is cleaved upon UV-irradiation, and exchanged with the peptide of interest as analyzed. Only peptide candidates that can effectively bind and stabilize the peptide-receptive MHC molecules prevent dissociation of the MHC complexes. To determine the yield of the exchange reaction, an ELISA was performed based on the detection of the light chain (β2m) of stabilized MHC complexes. The assay was performed as generally described in Rodenko et al. (Rodenko et al., 2006).
(§2) 96 well MAXISorp plates (NUNC) were coated over night with 2 ug/ml streptavidin in PBS at room temperature, washed 4× and blocked for 1 h at 37° C. in 2% BSA containing blocking buffer. […] Peptide-MHC monomers of the UV-exchange reaction were diluted 100-fold in blocking buffer. Samples were incubated for 1 h at 37° C., washed four times, incubated with 2 ug/ml HRP conjugated anti-β2m for 1h at 37° C., washed again and detected with TMB solution that is stopped with […]. Absorption was measured at 450 nm.

HLA-A*02 = target: T3, HLA-A*02 (human); experiment: UV peptide-exchange ELISA; ++++ = yield >75%
T3 construct: MHC monomer made peptide-receptive by UV cleavage of a UV-sensitive ligand; also called peptide-receptive MHC class I monomer

HLA-B*07 = target: T4, HLA-B*07 (human); experiment: UV peptide-exchange ELISA; +++ = yield >50%
T4 construct: MHC monomer made peptide-receptive by UV cleavage of a UV-sensitive ligand; also called peptide-receptive MHC class I monomer
Description: as §1, §2

Binder: RLRSSLVFK [RLRSSLVFK (SEQ ID NO: 219)]
- peptide exchange yield (HLA-A*03): > 75%

Binder: RELQHEHSL [RELQHEHSL (SEQ ID NO: 481)]
- peptide exchange yield (HLA-B*44): 50 to 75%

Binder: EEGRVYLF [EEGRVYLF (SEQ ID NO: 356)]
- peptide exchange yield (HLA-B*44): 50 to 75%

Binder: MMFSGPQILKL [MMFSGPQILKL (SEQ ID NO: 215)]
- peptide exchange yield (HLA-A*03): > 75%

Binder: TLMEQPLTTL [TLMEQPLTTL (SEQ ID NO: 389)]
- peptide exchange yield (HLA-A*02): > 75%

Binder: GEVHPSEMI [GEVHPSEMI (SEQ ID NO: 367)]
- peptide exchange yield (HLA-B*44): 50 to 75%

Binder: TDSIHAWTF [TDSIHAWTF (SEQ ID NO: 324)]
- peptide exchange yield (HLA-B*44): 50 to 75%

Binder: KAYEQVMHY [KAYEQVMHY (SEQ ID NO: 212)]
- peptide exchange yield (HLA-A*03): > 75%

Binder: AELDKLTSV [AELDKLTSV (SEQ ID NO: 363)]
- peptide exchange yield (HLA-B*44): 50 to 75%

Binder: EDAQGHIW [EDAQGHIW (SEQ ID NO: 331)]
- peptide exchange yield (HLA-B*44): 50 to 75%

Binder: KVKDTPGLGK [KVKDTPGLGK (SEQ ID NO: 203)]
- peptide exchange yield (HLA-A*03): > 75%

Binder: EEIEGKGSFTYF [EEIEGKGSFTYF (SEQ ID NO: 341)]
- peptide exchange yield (HLA-B*44): 50 to 75%

Binder: TEREWADEW [TEREWADEW (SEQ ID NO: 482)]
- peptide exchange yield (HLA-B*44): 50 to 75%

Binder: KVYTPSISK [KVYTPSISK (SEQ ID NO: 454)]
- peptide exchange yield (HLA-A*03): > 75%

Binder: GIADFVLKY [GIADFVLKY (SEQ ID NO: 458)]
- peptide exchange yield (HLA-A*03): > 75%

Binder: GECDVFKEIL [GECDVFKEIL (SEQ ID NO: 350)]
- peptide exchange yield (HLA-B*44): 50 to 75%

Binder: RIADIFVKK [RIADIFVKK (SEQ ID NO: 455)]
- peptide exchange yield (HLA-A*03): > 75%

Binder: AETPIQNVI [AETPIQNVI (SEQ ID NO: 364)]
- peptide exchange yield (HLA-B*44): 50 to 75%

Binder: AETLSTIQI [AETLSTIQI (SEQ ID NO: 333)]
- peptide exchange yield (HLA-B*44): 50 to 75%

Binder: SLFKDQMEL [SLFKDQMEL (SEQ ID NO: 392)]
- peptide exchange yield (HLA-A*02): > 75%

Binder: GLASRILDAK [GLASRILDAK (SEQ ID NO: 208)]
- peptide exchange yield (HLA-A*03): > 75%

Binder: ATSGVPVYK [ATSGVPVYK (SEQ ID NO: 210)]
- peptide exchange yield (HLA-A*03): > 75%

Binder: SLDGAARPK [SLDGAARPK (SEQ ID NO: 205)]
- peptide exchange yield (HLA-A*03): > 75%

Binder: SEIEQEIGSL [SEIEQEIGSL (SEQ ID NO: 478)]
- peptide exchange yield (HLA-B*44): 50 to 75%

Binder: RELENCFQIQ [RELENCFQIQ (SEQ ID NO: 357)]
- peptide exchange yield (HLA-B*44): 50 to 75%

Binder: SEFMQVIF [SEFMQVIF (SEQ ID NO: 323)]
- peptide exchange yield (HLA-B*44): 50 to 75%

Binder: AVFDKFIRY [AVFDKFIRY (SEQ ID NO: 204)]
- peptide exchange yield (HLA-A*03): > 75%

Binder: KLAELEGALQK [KLAELEGALQK (SEQ ID NO: 202)]
- peptide exchange yield (HLA-A*03): > 75%

Binder: ALNPYQYQY [ALNPYQYQY (SEQ ID NO: 347)]
- peptide exchange yield (HLA-B*44): 50 to 75%

Binder: HIMPTVHTV [HIMPTVHTV (SEQ ID NO: 390)]
- peptide exchange yield (HLA-A*02): > 75%

Binder: TEDPTILRI [TEDPTILRI (SEQ ID NO: 354)]
- peptide exchange yield (HLA-B*44): 50 to 75%

Binder: SEIEDSTKQVF [SEIEDSTKQVF (SEQ ID NO: 485)]
- peptide exchange yield (HLA-B*44): 50 to 75%

Binder: EEATGQFHVY [EEATGQFHVY (SEQ ID NO: 344)]
- peptide exchange yield (HLA-B*44): 50 to 75%

Binder: EEIERFFKL [EEIERFFKL (SEQ ID NO: 369)]
- peptide exchange yield (HLA-B*44): 50 to 75%

Binder: AEVPTGVII [AEVPTGVII (SEQ ID NO: 360)]
- peptide exchange yield (HLA-B*44): 50 to 75%

Binder: AEQDMRELTY [AEQDMRELTY (SEQ ID NO: 349)]
- peptide exchange yield (HLA-B*44): 50 to 75%

Binder: VPLPAGGGTV [VPLPAGGGTV (SEQ ID NO: 229)]
- peptide exchange yield (HLA-B*07): 50 to 75%

Binder: AEIQPQTQV [AEIQPQTQV (SEQ ID NO: 479)]
- peptide exchange yield (HLA-B*44): 50 to 75%

Binder: AEDQLHHSF [AEDQLHHSF (SEQ ID NO: 487)]
- peptide exchange yield (HLA-B*44): 50 to 75%

Binder: SEGSEPALLHSW [SEGSEPALLHSW (SEQ ID NO: 338)]
- peptide exchange yield (HLA-B*44): 50 to 75%

Binder: EENDQSTHKW [EENDQSTHKW (SEQ ID NO: 483)]
- peptide exchange yield (HLA-B*44): 50 to 75%

Binder: RTQIPMSEK [RTQIPMSEK (SEQ ID NO: 209)]
- peptide exchange yield (HLA-A*03): > 75%

Binder: RTMSEAALVRK [RTMSEAALVRK (SEQ ID NO: 214)]
- peptide exchange yield (HLA-A*03): > 75%

Binder: SMFTAILKK [SMFTAILKK (SEQ ID NO: 456)]
- peptide exchange yield (HLA-A*03): > 75%

Binder: SEDDPILQI [SEDDPILQI (SEQ ID NO: 486)]
- peptide exchange yield (HLA-B*44): 50 to 75%

Binder: YEIEARNQVF [YEIEARNQVF (SEQ ID NO: 327)]
- peptide exchange yield (HLA-B*44): 50 to 75%

Binder: AINTSIKNK [AINTSIKNK (SEQ ID NO: 453)]
- peptide exchange yield (HLA-A*03): > 75%

Binder: RSFNGLLTMY [RSFNGLLTMY (SEQ ID NO: 207)]
- peptide exchange yield (HLA-A*03): > 75%

Binder: QEMQHFLGL [QEMQHFLGL (SEQ ID NO: 326)]
- peptide exchange yield (HLA-B*44): 50 to 75%

Binder: RPAATAVISL [RPAATAVISL (SEQ ID NO: 237)]
- peptide exchange yield (HLA-B*07): 50 to 75%

Binder: RILNQILYY [RILNQILYY (SEQ ID NO: 217)]
- peptide exchange yield (HLA-A*03): > 75%

Binder: TVNPVAIHK [TVNPVAIHK (SEQ ID NO: 211)]
- peptide exchange yield (HLA-A*03): > 75%

Binder: KLIDLSQVMY [KLIDLSQVMY (SEQ ID NO: 206)]
- peptide exchange yield (HLA-A*03): > 75%

Binder: AEIQGNINHV [AEIQGNINHV (SEQ ID NO: 348)]
- peptide exchange yield (HLA-B*44): 50 to 75%

Binder: SLIDMRGIETV [SLIDMRGIETV (SEQ ID NO: 391)]
- peptide exchange yield (HLA-A*02): > 75%

Binder: NEHPSNNW [NEHPSNNW (SEQ ID NO: 329)]
- peptide exchange yield (HLA-B*44): 50 to 75%

Binder: MEMQKSPVF [MEMQKSPVF (SEQ ID NO: 373)]
- peptide exchange yield (HLA-B*44): 50 to 75%

Binder: NPFYPEVEL [NPFYPEVEL (SEQ ID NO: 222)]
- peptide exchange yield (HLA-B*07): 50 to 75%

Binder: HEFSSPSHL [HEFSSPSHL (SEQ ID NO: 342)]
- peptide exchange yield (HLA-B*44): 50 to 75%

Binder: AEMLESVIKNY [AEMLESVIKNY (SEQ ID NO: 321)]
- peptide exchange yield (HLA-B*44): 50 to 75%

Binder: SINKPTSER [SINKPTSER (SEQ ID NO: 457)]
- peptide exchange yield (HLA-A*03): > 75%

Binder: ILLPYLQTL [ILLPYLQTL (SEQ ID NO: 393)]
- peptide exchange yield (HLA-A*02): > 75%

Binder: QENSYQSRL [QENSYQSRL (SEQ ID NO: 477)]
- peptide exchange yield (HLA-B*44): 50 to 75%

Binder: EEVNYINTF [EEVNYINTF (SEQ ID NO: 351)]
- peptide exchange yield (HLA-B*44): 50 to 75%

Binder: VPLPAGGGTVL [VPLPAGGGTVL (SEQ ID NO: 230)]
- peptide exchange yield (HLA-B*07): 50 to 75%

Binder: SEKGVIQVY [SEKGVIQVY (SEQ ID NO: 362)]
- peptide exchange yield (HLA-B*44): 50 to 75%

Binder: KEGDLGGKQW [KEGDLGGKQW (SEQ ID NO: 330)]
- peptide exchange yield (HLA-B*44): 50 to 75%

Reference: patent publication US11352401
